This is an account of results in patent publication US10449259B2, “Enzyme-responsive peptide nanofiber compositions and uses thereof” (Cornell University, priority 2015, dated 2019).

Primed or numbered codes have the meaning given here. *: point of attachment. mPEG2000 = methoxypolyethylene glycol polymer of 2 kDa, conjugated at the peptide N-terminus; FITC = O=C1OC2(c3ccc(O)cc3Oc3cc(O)ccc32)c2ccc(NC(=S)*)cc21; FITC′ = fluorescein isothiocyanate label; mPEG2000(3) = 2 kDa mPEG at N-terminus; Cy5.5 = Cy5.5 fluorophore

The subject of series [1] is MDA-MB-468 tumors. In words: In vivo fluorescence monitoring of distribution after tail vein injection, MDA-MB-468 tumors. More on the design: species or system nude mice. Conditions: 0.5 nmol of fluorophore content, 48 hours post-injection. The procedure: Similar results were observed when the animals were injected with GSH-NFP nanofibers having a homogenous length of 400 nm. FIGS. 16A and 16B (white arrows).

Series [2] deals with triple-negative breast cancer MDA-MB-231 cells. In words: CellTiter-Glo luminescent cell viability (cytotoxicity) assay, MDA-MB-231. The class given is cell-based, human. The settings on record: for IC50: 5 days of incubation, concentration according to DM1 content, mean ± SD, triplicate; for toxicity of naked nanofibers: below a concentration of 1 μM. As for the experimental part:
(§1) The cytotoxicity of drug-loaded NFP1 and NFP2 nanofibers was assessed using the CellTiter-Glo Luminescent Cell Viability Assay (Promega, Madison, Wis.) as previously described in Junttila et al., Breast Cancer Res. Treat. 128 (2), 347-356 (2011). Briefly, cells were seeded on a 96-well plate (2×10^3/well for MDA-MB-231 and MDA-MB-468 and 2×10^4/well for BT474) and were allowed to stabilize overnight. […] After 5 days of incubation, CellTiter-Glo reagent (100 μL) was added to each well. The generated oxyluciferin was quantified for emitted luminescence using a microplate reader (Tecan US Inc., Morrisville, N.C.). All experiments were performed in triplicate, and the results were presented as mean±standard deviation. Statistical analyses were performed using Graph Pad Prism 6.0 software. All data were normalized to the values obtained with the untreated control cells, and half maximal inhibitory concentrations (IC50) were calculated by fitting the obtained data to a sigmoidal curve.
(§2) The cytotoxicity of the DM1-loaded nanofibers was evaluated using various human HER2-positive breast cancer (BT474) and triple-negative breast cancer (MDA-MB-231 and MDA-MB-468) cell lines as ex vivo models. A luminescent cell viability assay was employed to determine the cell viability through quantification of the adenosine triphosphate (ATP) produced by metabolically active cells. This assay offered more accurate and reproducible results compared to the widely used MTS assay (data not shown). Because the cell killing of DM1 is slow, the assays were performed following the incubation of the tested samples for 5 days, as previously described in Junttila et al., Breast Cancer Res. Treat. 128 (2), 347-356 (2011).
On the technique in general: In ATP-based viability assays light output follows the ATP content of the culture.

The subject of series [3] is HER2-positive breast cancer (BT474) cells. In words: CellTiter-Glo luminescent cell viability (cytotoxicity) assay, BT474. It is filed as cell-based, human. The settings on record: 5 days of incubation, concentration according to DM1 content, mean ± SD, triplicate.
Experimental: Briefly, cells were seeded on a 96-well plate (2×10^3/well for MDA-MB-231 and MDA-MB-468 and 2×10^4/well for BT474) and were allowed to stabilize overnight. […] After 5 days of incubation, CellTiter-Glo reagent (100 μL) was added to each well. The generated oxyluciferin was quantified for emitted luminescence using a microplate reader (Tecan US Inc., Morrisville, N.C.). […] Statistical analyses were performed using Graph Pad Prism 6.0 software. All data were normalized to the values obtained with the untreated control cells, and half maximal inhibitory concentrations (IC50) were calculated by fitting the obtained data to a sigmoidal curve.
The cytotoxicity of the DM1-loaded nanofibers was evaluated using various human HER2-positive breast cancer (BT474) and triple-negative breast cancer (MDA-MB-231 and MDA-MB-468) cell lines as ex vivo models. A luminescent cell viability assay was employed to determine the cell viability through quantification of the adenosine triphosphate (ATP) produced by metabolically active cells. […] Because the cell killing of DM1 is slow, the assays were performed following the incubation of the tested samples for 5 days, as previously described in Junttila et al., Breast Cancer Res. Treat.
The subject of series [4] is triple-negative breast cancer MDA-MB-468 cells. In words: CellTiter-Glo luminescent cell viability (cytotoxicity) assay, MDA-MB-468. It is filed as cell-based, human. The settings on record: for IC50: 5 days of incubation, concentration according to DM1 content, mean ± SD, triplicate; for toxicity of naked nanofibers: below a concentration of 1 μM. As for the experimental part: as §1, §2

The target of series [5] is T1, CathB (purified from bovine spleen) (Bos taurus, UniProt P07688).
T1 construct: CathB (purified from bovine spleen); purchased EMD Millipore (Billerica, Mass.); host or cells: bovine spleen (tissue-purified)
In words: Enzyme digestion study with CathB (HPLC, MALDI-TOF, TEM, fluorescence). Conditions: for CathB digestion, peptide fragments by HPLC: 50 μM peptide content, sodium acetate buffer pH 4, 24 hours; for CathB digestion, peptide fragments by HPLC / fluorescence change of quenched nanofibers after CathB digestion: CathB 0.3 U; for morphological change in response to CathB digestion (TEM): 24 hour incubation with the enzyme; for fluorescence change of quenched nanofibers after CathB digestion: 0.1 μM peptide content, pH 4, 24 hours. It is filed as biochemical. The procedure:
NFP1 and NFP2 nanofibers (50 μM of peptide content) were incubated with CathB (0.3 U) in sodium acetate buffer (50 μM; pH 4). Nanofibers incubated with buffer only were used as the negative controls. After 24 hours, the samples were taken out for TEM, rp-HPLC, and MALDI-TOF analysis.
Intact or digested NFP1 and NFP2 nanofibers (10 μM of peptide content) in buffer (20 μL) were transferred onto Formvar/carbon-coated 400 mesh copper grids (Electron Microscopy Sciences, Hatfield, Pa.). Excess nanofibers were blotted off using filter paper and the samples were stained with 0.5% (v/v) uranyl formate solution (20 μL). After drying at room temperature, the grids were examined under TEM (JEOL JEM-1400 LaB6 TEM operating at 120 Kv).

In the case of `Cn1cnc(N)c2ncnc1-2` [3MA], the “tumoral uptake relative to Cy5.5” value in series [1] is “increased tumoral uptake”.

Broadly, the IC50 is the point on the concentration scale where inhibition reaches its midpoint. The low end stands for greater potency in that assay, the high end for weaker potency in that assay. As for `COc1cc2cc(c1Cl)N(C)C(=O)C[C@H](OC(=O)[C@H](C)N(C)C(=O)CCS)[C@]1(C)O[C@H]1[C@H](C)[C@@H]1C[C@@](O)(NC(=O)O1)[C@H](OC)/C=C/C=C(\C)C2` [DM1, N2′-deacetyl-N2′-(3-mercapto-1-oxopropyl)-maytansine, reference compound], the IC50 in series [2] is 0.0354 ± 0.0042 µM; in series [3], 0.0681 ± 0.005 µM; in series [4] it was 0.0219 ± 0.0041 µM.

On to “FITC-NFP1: mPEG2000, hexalysine motif, self-assembling domain KLDLKLDLKLDLK and FITC fluorophore (mPEG2000-KKKKKKKLDLKLDLKLDLK(FITC)-NH2; not fully specified)”, for which, in series [5], the “CathB digestion, peptide fragments by HPLC” value is reported as “multiple peptide fragments”; the “morphological change in response to CathB digestion (TEM)” value is “disintegrated and became shorter in length”.

Take “FITC-NFP2: mPEG2000, self-assembling domain KLDLKLDLKLDLK and FITC fluorophore (mPEG2000-KLDLKLDLKLDLK(FITC)-NH2; not fully specified)”: in series [5], the “CathB digestion, peptide fragments by HPLC” value is “only one fragment” and the “morphological change in response to CathB digestion (TEM)” value is “assembled into an interfibril network”.

Turning to “NFP1: naked nanofiber of mPEG peptides with hexalysine motif and self-assembling domain KLDLKLDLKLDLK (mPEG2000-KKKKKKKLDLKLDLKLDLK(FITC′)-NH2; not fully specified)”, the “toxicity of naked nanofibers at high concentration” value in series [2] (10 μM) and in series [4] (10 μM) was “significant cell growth inhibition” in each case. For the same molecule, the “toxicity of naked nanofibers” value in series [2] and in series [4] was “nontoxic” in each case. Further, the “sensitivity to CathB digestion” value in series [5] (compared to NFP2) is given as “increased sensitivity to CathB digestion”.

For “NFP2: naked nanofiber of mPEG peptides with self-assembling domain KLDLKLDLKLDLK, no hexalysine motif (mPEG2000-KLDLKLDLKLDLK(FITC′)-NH2; also: mPEG, site not given here)”, the “toxicity of naked nanofibers” value in series [2] and in series [4] was “nontoxic” each time.

As to T-DM1 [reference compound], the IC50 was found to be 0.0689 ± 0.0038 µM in series [2] and 0.0652 ± 0.0044 µM in series [4].

On to “mPEG2000 KLDLKLDLKLDLK-Cy5.5 ({mPEG2000(3)}-KLDLKLDLKLDLK-{Cy5.5}) [Cy5.5-NFP2, optically quenched nanofiber prepared using Cy5.5-conjugated peptide constructs only]”, for which the “fluorescence change of quenched nanofibers after CathB digestion” value in series [5] was “only slightly increased”.

As for “mPEG2000-KKKKKKKLDLKLDLKLDLK-Cy5.5 (mPEG2000-KKKKKKKLDLKLDLKLDLK-{Cy5.5}) [Cy5.5-NFP1, optically quenched nanofiber prepared using Cy5.5-conjugated peptide constructs only]”, the “fluorescence change of quenched nanofibers after CathB digestion” value in series [5] is on record as “recovery of the fluorescence signal”.
